By Km is commonly meant the concentration of substrate that gives half-maximal velocity. One may read the Vmax as the top rate of the reaction or transport when substrate is in excess. The term kcat denotes the maximal rate divided by the concentration of active sites. For orientation: kcat/Km means the second-order rate constant that governs catalysis at low substrate concentration.

The values below come from PMC8162780.

Substrate in series [1]: CCOCC(O)CO
The series can be described thus: purified protein. Format: biochemical, Geobacillus stearothermophilus. The settings on record: 1 mM NAD+, 100 mM sodium phosphate pH 7, 30 °C, free enzyme.

Substrate in series [2]: OCC(O)CO
Kind of series: purified protein. Format: biochemical, Geobacillus stearothermophilus. Particulars: 1 mM NAD+, 100 mM sodium phosphate pH 7, 30 °C, free enzyme.

Substrate in series [3]: OCC(O)COCC(F)(F)F
The series can be described thus: purified protein. Format: biochemical, Geobacillus stearothermophilus. Particulars: 1 mM NAD+, 100 mM sodium phosphate pH 7, 30 °C, free enzyme.

Substrate in series [4]: OCC(O)COc1ccccc1
Kind of series: purified protein. Format: biochemical, Geobacillus stearothermophilus. The settings on record: 1 mM NAD+, 100 mM sodium phosphate pH 7, 30 °C, free enzyme.

Substrate in series [5]: OCC(O)COc1ccccc1
Kind of series: purified protein, by the assay type. The settings on record: 30.0 °C.

B1: BsGlyDH (GlyDH from Bacillus stearothermophilus) (Geobacillus stearothermophilus) (protein)
chain: MAAERVFISPAKYVQGKNVITKIANYLEGIGNKTVVIADEIVWKIAGHTIVNELKKGNIAAEEVVFSGEASRNEVERIANIARKAEAAIVIGVGGGKTLDTAKAVADELDAYIVIVPTAASTDAPTSALSVIYSDDGVFESYRFYKKNPDLVLVDTKIIANAPPRLLASGIADALATWVEARSVIKSGGKTMAGGIPTIAAEAIAEKCEQTLFKYGKLAYESVKAKVVTPALEAVVEANTLLSGLGFESGGLAAAHAIHNGFTALEGEIHHLTHGEKVAFGTLVQLALEEHSQQEIERYIELYLSLDLPVTLEDIKLKDASREDILKVAKAATAEGETIHNAFNVTADDVADAIFAADQYAKAYKEKHRK
For B1, the Km worked out at 13.4 ± 0.4 mM in the series “purified protein [1]”; 50 ± 3 mM in “purified protein [2]”; 78 ± 8 mM in the series “purified protein [3]”; 7 ± 2 mM in the series “purified protein [4]”; 6.6 mM in series [5]. The Vmax came to 0.036 µmol/min/mg in “purified protein [1]”, 1.4 µmol/min/mg in “purified protein [2]”, 0.06 µmol/min/mg in “purified protein [3]” and 0.14 µmol/min/mg in the series “purified protein [4]”. Also, the kcat in “purified protein [1]” is 0.19 ± 0.003 s⁻¹; in “purified protein [2]”, 7.4 ± 0.2 s⁻¹; in the series “purified protein [3]”, 0.32 ± 0.01 s⁻¹; in the series “purified protein [4]” it was 0.7 ± 0.1 s⁻¹. Also, the kcat/Km worked out at 14 M⁻¹ s⁻¹ in the series “purified protein [1]”, 148 M⁻¹ s⁻¹ in the series “purified protein [2]”, 4 M⁻¹ s⁻¹ in “purified protein [3]” and 112 M⁻¹ s⁻¹ in “purified protein [4]”.
